Consider five molecules from PMC7082571, “Two New Unspecific Peroxygenases from Heterologous Expression of Fungal Genes in Escherichia coli” (Applied and Environmental Microbiology, 2020).

Series [1] has as its target recombinant Daldinia caldariorum unspecific peroxygenase (Daldinia caldariorum). Nature of the series: SEC; Sepharose 12 10/300 column, 10 mM Tris (pH 7.4) with 0.15 M NaCl, calibrated with ferritin, aldolase, bovine serum albumin, ovalbumin, carbonic anhydrase and aprotinin; native mass compared with SDS-PAGE under reducing conditions. For orientation: Size exclusion chromatography separates by hydrodynamic size, large species first.

The target in series [2] is T1, rCviUPO (C. virescens UPO) (Achaetomiella virescens, UniProt Z9FBJ6W4Y2).
T1 construct: codon-optimised gene in pET23a, untagged, soluble in E. coli C41; 29,616 Da calculated, 52 kDa by SEC (most probably dimer); heme-thiolate
T1 sequence (Z9FBJ6W4Y2 1-226): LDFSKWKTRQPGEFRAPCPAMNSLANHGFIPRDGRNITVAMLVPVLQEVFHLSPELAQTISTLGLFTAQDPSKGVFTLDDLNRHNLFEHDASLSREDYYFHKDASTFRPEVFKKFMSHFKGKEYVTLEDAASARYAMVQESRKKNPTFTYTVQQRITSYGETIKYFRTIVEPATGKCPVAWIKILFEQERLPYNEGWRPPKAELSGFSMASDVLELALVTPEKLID
Put plainly: benzaldehyde formation at […] nm, Hill fit. The series is classed as biochemical. The settings on record: 1 mM H2O2, 0.1 M Tris, optimal pH (Fig. S6), 25°C; sigmoidal, nH 1.6 ± 0.2.

Series [3] has as its target T2, rCviUPO (C. virescens UPO) (Achaetomiella virescens, UniProt Z9FBJ6W4Y2, F87L, form not given).
T2 construct: codon-optimised gene in pET23a, untagged, soluble in E. coli C41; 29,616 Da calculated, 52 kDa by SEC (most probably dimer); heme-thiolate
T2 sequence (Z9FBJ6W4Y2 1-226 F87L): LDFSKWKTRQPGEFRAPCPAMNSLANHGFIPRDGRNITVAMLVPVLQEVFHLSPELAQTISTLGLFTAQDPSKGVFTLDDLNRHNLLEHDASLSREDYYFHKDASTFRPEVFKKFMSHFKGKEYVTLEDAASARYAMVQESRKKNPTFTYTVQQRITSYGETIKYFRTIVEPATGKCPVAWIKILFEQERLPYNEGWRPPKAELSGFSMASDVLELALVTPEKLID
Nature of the series: benzaldehyde formation at […] nm. The series is classed as biochemical. The settings on record: 1 mM H2O2, 0.1 M Tris, optimal pH (Fig. S10), 25°C.

Series [4] deals with T3, rDcaUPO (D. caldariorum UPO) (Daldinia caldariorum, UniProt A0AAN0NP18).
T3 construct: codon-optimised gene in pET28, poly-His tag (thrombin-cleavable, no effect on activity), soluble in E. coli C41; 29,609 Da calculated, 55 kDa by SEC (most probably dimer)
Nature of the series: benzaldehyde formation at […] nm, substrate inhibition model. The settings on record: 1 mM H2O2, 0.1 M Tris, optimal pH (Fig. S6), 25°C. The format is biochemical.

For series [5], the target named is T4, rCviUPO (C. virescens UPO) (Achaetomiella virescens, UniProt Z9FBJ6W4Y2, T157F, form not given).
T4 construct: codon-optimised gene in pET23a, untagged, soluble in E. coli C41; 29,616 Da calculated, 52 kDa by SEC (most probably dimer); heme-thiolate
T4 sequence (Z9FBJ6W4Y2 1-226 T157F): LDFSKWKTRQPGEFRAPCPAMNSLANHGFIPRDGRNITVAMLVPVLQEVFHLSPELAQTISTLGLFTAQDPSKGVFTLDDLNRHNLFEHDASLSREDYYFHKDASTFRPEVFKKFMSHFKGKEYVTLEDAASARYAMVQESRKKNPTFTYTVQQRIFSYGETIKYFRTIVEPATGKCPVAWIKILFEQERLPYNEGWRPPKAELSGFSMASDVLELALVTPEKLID
Nature of the series: benzaldehyde formation at […] nm. The series is classed as biochemical. The settings on record: 1 mM H2O2, 0.1 M Tris, optimal pH (Fig. S10), 25°C.

The target of series [6] is T4, rCviUPO (C. virescens UPO). Nature of the series: veratraldehyde formation at […] nm. The settings on record: 1 mM H2O2, 0.1 M acetate, optimal pH (Fig. S10), 25°C. The format is biochemical.
Series [7] addresses T3, rDcaUPO (D. caldariorum UPO). Put plainly: veratraldehyde formation at […] nm, substrate inhibition model. The series is classed as biochemical. The settings on record: 1 mM H2O2, 0.1 M acetate, optimal pH (Fig. S6), 25°C.
For series [8], the target named is T2, rCviUPO (C. virescens UPO). Put plainly: veratraldehyde formation at […] nm. The format is biochemical. The settings on record: 1 mM H2O2, 0.1 M acetate, optimal pH (Fig. S10), 25°C.
Series [9] has as its target T1, rCviUPO (C. virescens UPO). Nature of the series: veratraldehyde formation at […] nm. The series is classed as biochemical. The settings on record: 1 mM H2O2, 0.1 M acetate, optimal pH (Fig. S6), 25°C.
Substrate in series [10]: c1ccc2ccccc2c1
Put plainly: purified protein. The series is classed as biochemical, Daldinia caldariorum. The settings on record: 1 mM H2O2, 0.1 M tartrate with 5% ethanol, optimal pH (Fig. S6), 25°C, Methods say Hill fit, Results say Michaelis-Menten.

Substrate in series [11]: COc1ccc(CO)cc1OC
Nature of the series: purified protein. The settings on record: 1 mM H2O2, 0.1 M acetate, optimal pH (Fig. S6), 25°C. The format is biochemical, Daldinia caldariorum.

Substrate in series [12]: OCc1ccccc1
Nature of the series: purified protein. The series is classed as biochemical, Daldinia caldariorum. The settings on record: 1 mM H2O2, 0.1 M Tris, optimal pH (Fig. S6), 25°C.

Substrate in series [13]: CCn1c(=NN=c2sc3cc(S(=O)(=O)O)ccc3n2CC)sc2cc(S(=O)(=O)O)ccc21
Put plainly: purified protein. The settings on record: 1 mM H2O2, 0.1 M acetate, optimal pH (Fig. S6), 25°C. The format is biochemical, Daldinia caldariorum.

Series [14] concerns the molecule itself. Nature of the series: SEC; Sepharose 12 10/300 column, 10 mM Tris (pH 7.4) with 0.15 M NaCl, calibrated with ferritin, aldolase, bovine serum albumin, ovalbumin, carbonic anhydrase and aprotinin; native mass compared with SDS-PAGE under reducing conditions.

A word on the stoichiometry N: it is the number of molecules, sites or subunits per partner or assembly. Turning to “recombinant Daldinia caldariorum unspecific peroxygenase (enzyme)”, the stoichiometry N in [1] stood at 2.
As usually defined, the Km is the concentration of substrate that gives half-maximal velocity. On to `OCc1ccccc1` [benzyl alcohol], for which the Km in [2] came to 7100 µM; in series [3] it was 623 ± 111 µM; in series [5], 1870 µM. For the same molecule, the “Ki (μM)” value in [4] is given as 9,280 ± 2,270 μM.
`COc1ccc(CO)cc1OC` [veratryl alcohol]: the Km in series [6] came out at 3970 µM; in series [8], 1150 µM; in [9] it was 2940 µM. In series [7], the “Ki (μM)” value was 45,400 ± 7,000 μM.

B1: rDcaUPO (D. caldariorum UPO) (Daldinia caldariorum) (protein)
chain: MAPWKAPGPDDVRGPCPMLNTLANHGFLPHDGKNIDVNTTVNALSSALNLDDELSRDLHTFAVTTNPQPNATWFSLNHLSRHNVLEHDASLSRQDAYFGPPDVFNAAVFNETKAYWTGDIINFQMAANALTARLMTSNLTNPEFSMSQLGRGFGLGETVCYVTILGSKETRTVPKAFVEYLFENERLPYELGFKKMKSALTEDELTTMMGEIYSLQHLPESFTKPFAKRSEAPFEKRAEKRCPFH
notes: codon-optimised gene in pET28, poly-His tag (thrombin-cleavable, no effect on activity), soluble in E. coli C41; 29,609 Da calculated, 55 kDa by SEC (most probably dimer)
As a reminder, the kcat is the maximal rate divided by the concentration of active sites. Broadly, the kcat/Km is the turnover number divided by the Michaelis constant. For B1, the Km in series [10] was found to be 332 ± 81 µM; in series [11] it was 160 ± 22 µM; in [12] it was 179 ± 36 µM; in [13], 59 ± 6 µM. For the same molecule, the kcat in series [10] turned out to be 22.1 ± 1.92 s⁻¹; in series [11], 2.39 ± 0.09 s⁻¹; in series [12], 16.1 ± 1.19 s⁻¹; in series [13], 6.73 ± 0.14 s⁻¹. In addition, the kcat/Km in series [10] was determined as 66800 ± 17300 M⁻¹ s⁻¹; in series [11], 14800 ± 2100 M⁻¹ s⁻¹; in series [12] it was 90000 ± 19000 M⁻¹ s⁻¹; in [13] it was 114000 ± 10500 M⁻¹ s⁻¹.

B2: recombinant Collariella virescens unspecific peroxygenase (enzyme)
chain: ALDFSKWKTRQPGEFRAPCPAMNSLANHGFIPRDGRNITVAMLVPVLQEVFHLSPELAQTISTLGLFTAQDPSKGVFTLDDLNRHNLFEHDASLSREDYYFHKDASTFRPEVFKKFMSHFKGKEYVTLEDAASARYAMVQESRKKNPTFTYTVQQRITSYGETIKYFRTIVEPATGKCPVAWIKILFEQERLPYNEGWRPPKAELSGFSMASDVLELALVTPEKLID
As for B2, the “stoichiometry N” value in [14] amounted to 2.
